The record followed here is patent publication US20030162168A1.

The test deals with chimera H (HCV NS3 to NS5B-P6' fused to tTA, NS3 active site mutant S1165A, unmodified NS5A/5B junction) (Hepatitis C virus 1b (human serum isolate)). In words: cell-based or functional assay.

As for “chimera I (HCV NS3 to NS5B-P6' fused to tTA, NS5A/5B cleavage site P1-P1' mutated to R-P; source of active NS3 protease)”, the luciferase activity, triple transfection of chimera H, I and the pUHC13-3 reporter into 293 cells turned out to be 2e+06 cps.
